This assay concerns the target mAb-hERG1. In words: SPR; Biacore T200; mAb-hERG1 bound to a Protein G pre-coated CM5 chip (7693 RU); S5-Pore applied at 10, 50, 100, 500 nM, single cycle kinetics; contact 30 s, dissociation 120 s, 30 ul/min. A general note: In SPR one partner is held on a chip, and binding of the other changes the refractive index at the surface.

Kd, koff and kon data for 1 molecule are collected here from PMC6201861.

Chain of mAb-hERG1 (heavy, as listed by the source, chain 1 of 2): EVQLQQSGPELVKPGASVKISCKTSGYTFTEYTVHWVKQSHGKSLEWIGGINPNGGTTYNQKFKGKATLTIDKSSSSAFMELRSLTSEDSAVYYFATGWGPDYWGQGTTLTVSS
Chain of mAb-hERG1 (light, as listed by the source, chain 2 of 2): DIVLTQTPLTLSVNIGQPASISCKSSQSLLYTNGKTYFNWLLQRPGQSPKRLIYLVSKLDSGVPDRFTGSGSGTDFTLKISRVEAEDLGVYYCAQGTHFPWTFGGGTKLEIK

As for EQPHMDSRIGWLHN [S5-Pore peptide], the Kd (usually the equilibrium constant for the complex coming apart) worked out at 16.2 nM; the koff (usually the first-order rate constant of dissociation) is 0.0258 s⁻¹; the kon (in general, a measure of how fast the partners come together) turned out to be 1.6e+06 M⁻¹ s⁻¹.
